B1: MTBcc peptide (peptide)
peptide: SAGSCKCKESKSTS
B2: MTAcc peptide (peptide)
peptide: AQGSICKGASDKSS
B3: MTAn peptide (peptide)
peptide: KKSSCSCSPVGSAK

Target: MT2 protein (from Sigma) (UniProt P02795)
Test: SPR (BIAcoreX), MT2 immobilised on CM5 chip, peptide injected

Kd	koff	kon	Binder
160 nM	0.000501 s⁻¹	2830 M⁻¹ s⁻¹	B1
89.5 nM	0.0004 s⁻¹	4540 M⁻¹ s⁻¹	B2
367 nM	0.00574 s⁻¹	15700 M⁻¹ s⁻¹	B3

— patent US20100166759A1
